Article PMC8857485, “Prostate secretory protein 94 inhibits sterol binding and export by the mammalian CAP protein CRISP2 in a calcium-sensitive manner” (The Journal of Biological Chemistry, 2022)

B1: CRISP2 (cysteine-rich secretory protein 2), C-terminal polyhistidine tag [modified: RED-tris-NTA fluorescent label on the His tag; RED-tris-NTA fluorescent label on the His tag] [human] / prostate secretory protein of … (parent)
chain 1: KDPAFTALLTTQLQVQREIVNKHNELRKAVSPPASNMLKMEWSREVTTNAQRWANKCTLQHSDPEDRKTSTRCGENLYMSSDPTSWSSAIQSWYDEILDFVYGVGPKSPNAVVGHYTQLVWYSTYQVGCGIAYCPNQDSLKYYYVCQYCPAGNNMNRKNTPYQQGTPCAGCPDDCDKGLCTNSCQYQDLLSNCDSLKNTAGCEHELLKEKCKATCLCENKIY
chain 2: SCYFIPNEGVPGDSTRKCMDLKGNKHPINSEWQTDNCETCTCYETEISCCTLVSTPVGYDKDNCQRIFKKEDCKYIVVEKKDPKKTCSVSEWII

Variants of: B1
Assay: microscale thermophoresis
Conditions: with prostate secretory protein of 94 amino acids (PSP94), measurements in triplicates, PSP94 titrated (x axis PSP94 [nM])

| Kd | Variant |
| --- | --- |
| 4 nM | chain 1 N76P L77G |
